Reference: publication PMC6829319, “Combination of SAXS and Protein Painting Discloses the Three-Dimensional Organization of the Bacterial Cysteine Synthase Complex, a Potential Target for Enhancers of Antibiotic Action” (International Journal of Molecular Sciences, 2019)

B1: O-acetylserine sulfhydrylase isozyme A (CysK) from E. coli (enzyme)
chain: KIFEDNSLTIGHTPLVRLNRIGNGRILAKVESRNPSFSVKCRIGANMIWDAEKRGVLKPGVELVEPTSGNTGIALAYVAAARGYKLTLTMPETMSIERRKLLKALGANLVLTEGAKGMKGAIQKAEEIVASNPEKYLLLQQFSNPANPEIHEKTTGPEIWEDTDGQVDVFIAGVGTGGTLTGVSRYIKGTKGKTDLISVAVEPTDSPVIAQALAGEEIKPGPHKIQGIGAGFIPANLDLKLVDKVIGITNEEAISTARRLMEEEGILAGISSGAAVAAALKLQEDESFTNKNIVVILPSSGERYLSTALFADLFTEKELQQ
notes: Carries the pyridoxal 5'-phosphate (PLP) cofactor; Dimer; source: E. coli BL21(DE3) or BL21(DE3) Tuner, pET21P vector, purified as previously described [50]

What was measured:
[1] = biological target: B1; experiment: other fluorescence titration; PLP fluorescence emission of CysK at 500 nm after excitation at 412 nm with increasing concentrations of CysE; 20 °C; stoichiometric titration, ratio of CysE to CysK; settings: both partners purified
[2] = biological target: the molecule itself; experiment: SAXS; solution scattering at 10 °C; 20 mM sodium phosphate, 85 mM NaCl, 2 mM EDTA, 10 mM 2-MCE, pH 7.5; 0.5-1.5 mg/mL; CysK, CysE and CS (gel filtered and dialysed before) each measured; ab initio DAMMIF and SASREF rigid body models

Row | stoichiometry N [1] | Binder | stoichiometry N [2]
1 | 1.7 | serine acetyltransferase (CysE) from E. coli (enzyme, serine acetyltransferase (CysE), E. coli; Hexamer (dimer of trimers); source: E. coli BL21(DE3) or BL21(DE3) Tuner, pSH21p vector, purified, tag removed as previously described [50]) MSCEELEIVWNNIKAEARTLADCEPMLASFYHATLLKHENLGSALSYMLANKLSSPIMPAIAIREVVEEAYAADPEMIASAACDIQAVRTRDPAVDKYSTPLLYLKGFHALQAYRIGHWLWNQGRRALAIFLQNQVSVTFQVDIHPAAKIGRGIMLDHATGIVVGETAVIENDVSILQSVTLGGTGKSGGDRHPKIREGVMIGAGAKILGNIEVGRGAKIGAGSVVLQPVPPHTTAAGVPARIVGKPDSDKPSMDMDQHFNGINHTFEYGDGI | 6
2 |  | B1 | 2
